“Also recorded” adds a separate entry of the source.
Experiments:
[1] = system: cell-free patches from Xenopus oocytes; details: cited from earlier work
[2] = system: newborn rat ventricular myocytes; assay: Whole-cell voltage clamp of expressed HCN current in newborn rat ventricular myocytes; format: cell-based; details: for V1/2 / s: fit of average data
Protocol: Adult rats were anesthetized with ketamine-xylazine before cardiectomy, and neonatal rats decapitated. Newborn rat ventricular myocyte cultures were prepared as previously described (Protas and Robinson, 1999). Briefly, 1-2-day-old Wistar rats were euthanized, hearts were quickly removed and ventricles were dissociated using a standard trypsinization procedure. Myocytes were harvested, preplated to reduce fibroblast proliferation, cultured initially in serum-containing medium (except when being transfected with plasmids as described below), and then incubated in serum free medium (SFM) at 37° C., 5% CO2 after 24 h. Action potential studies were conducted on 4-day-old monolayer cultures plated directly onto fibronectin-coated 9×22 mm glass coverslips. For voltage clamp experiments, 4-6 day old monolayer cultures were resuspended by brief (2-3 min) exposure to 0.25% trypsin, then replated onto fibronectin-coated coverslips and studied within 2-8 h.
Adenoviral infection of the newborn ventricular myocytes was performed on cell monolayer cultures 4 days after initial plating. Cells were exposed to a virus-containing mix (m.o.i. 20, in 250 μl of culture medium) for 2 h, rinsed twice and incubated in SFM at 37° C., 5% CO2 for 24-48 hours prior to the cells being resuspended as described above for electrophysiological study.
The whole-cell patch clamp technique was employed to record mHCN2 current from cultured myocytes. Experiments were carried out on cells superfused at 35° C. The external solution contained (mM): NaCl, 140; NaOH, 2.3; MgCl2, 1; KCl, 10; CaCl2, 1; HEPES, 5; glucose, 10; pH 7.4. MnCl2 (2 mM) and BaCl2 (4 mM) were added to block other currents. The pipette solution contained (mM): aspartic acid, 130; KOH, 146; NaCl, 10; CaCl2, 2; EGTA-KOH, 5; Mg-ATP, 2; HEPES-KOH, 10; pH 7.2.
To measure the HCN activation curve, a standard two-step protocol was employed. Hyperpolarizing steps from −25 to −135 mV for mHCN2 and from −5 or −15 to −135 mV for mE324A were applied from a holding potential of −10 mV, followed by a tail current step (to −125 or −135 mV). The duration of test steps was longer at less hyperpolarized potential for mHCN2 channels, to more closely approach steady-state activation at all voltages. The normalized plot of tail current versus test voltage was fit with a Boltzmann function and then the voltage of half maximum activation (V1/2) and slope factor(s) were defined from the fitting. Activation kinetics were determined from the same traces, while deactivation kinetics were determined from traces recorded at each test potential after achieving full activation by a prepulse to −135 mV. Time constants were then obtained by fitting the early time course of activation or deactivation current traces with a monoexponential function; the initial delay and any late slow activation or deactivation phase were ignored (Qu et al., 2001; Altomare et al., 2001). Current densities are expressed as the value of the time-dependent component of current amplitude, measured at the end of the test potential and normalized to cell membrane capacitance. Records were not corrected for liquid junction potential, which was previously determined to be 9.8 mV under these conditions (Qu et al., 2001).

Xenopus oocytes = assay: Two-microelectrode voltage clamp of expressed HCN current in Xenopus oocytes; format: cell-based, Xenopus laevis
[3] = system: dogs with complete AV block; assay: Tandem biological and electronic pacemakers in dogs with complete AV block (injection into left bundle branch); format: in vivo, dog
Protocol: Adult mongrel dogs weighing 22-25 kg were anesthetized with propofol 6 mg/kg IV and inhalational isoflurane (1.5%-2.5%). Using a steerable catheter, saline (n=5), AdmHCN2 (n=6) or AdmE324A (n=4) were injected into the left bundle branch (LBB) as described previously (Plotnikov et al., 2004). In 2 additional dogs AdmE324A was injected into the LV septal myocardium as an internal control. Complete AV block was induced via radiofrequency ablation and each site of injection was paced via catheter electrode to distinguish electrocardiographically the origin of the idioventricular rhythm during the follow up period.
An electronic pacemaker (Discovery II, Flextend lead; Guidant, Indianapolis, Ind.) was implanted and set at VVI 45 bpm. ECG, 24 hour Holter monitoring, pacemaker log record check, and overdrive pacing at 80 bpm were performed daily for 14 days. To evaluate beta-adrenergic responsiveness, on day 14, epinephrine (1.0, 1.5 and 2.0 μg/kg/min for up to 10 min each) was infused to an endpoint of a 50% increase in idioventricular rate or ventricular arrhythmia (single ventricular premature beats having a morphology other than that of the dominant idioventricular rhythm or ventricular tachycardia), whichever occurred first. If none of the above responses was observed within 10 min after onset of the maximal dose of 2 μg/kg/min, the infusion was terminated.
Data are presented as means±SEM. […] One-way ANOVA was used to evaluate the effect of an implanted construct on electrophysiological parameters. Subsequent analysis was performed using Bonferroni's test where equal variances were assumed and the Games-Howell test where variances were unequal. A two-way contingency table analysis was conducted to evaluate whether epinephrine had different effects across three groups. Data were analyzed using SPSS for Windows software (SPSS, Inc.). P<0.05 was considered to be significant.
Complete AV block was induced via radiofrequency ablation, and electronic pacemakers were implanted into the right ventricular apical endocardium and set a VV1 45 bpm. ECG and 24-h monitoring were performed daily for 14 days. Beta-adrenergic responsiveness was also evaluated as described above.
Escape time was evaluated daily by performing three 30-s periods of ventricular overdrive pacing at 80 bpm followed by an abrupt cessation of pacing. The average time between the final electronically paced beat and the first intrinsic beat was then determined. […] There was a different result with regard to basal heart rates throughout the 14-day period, however.

[4] = 10 μM cAMP in the pipette solution

B1: HCN1: HCN1 isoform of hyperpolarization-activated, cyclic nucleotide-gated ion channel (protein, UniProt O60741 1-890, looked up)
Potassium/sodium …: MEGGGKPNSSSNSRDDGNSVFPAKASATGAGPAAAEKRLGTPPGGGGAGAKEHGNSVCFKVDGGGGGGGGGGGGEEPAGGFEDAEGPRRQYGFMQRQFTSMLQPGVNKFSLRMFGSQKAVEKEQERVKTAGFWIIHPYSDFRFYWDLIMLIMMVGNLVIIPVGITFFTEQTTTPWIIFNVASDTVFLLDLIMNFRTGTVNEDSSEIILDPKVIKMNYLKSWFVVDFISSIPVDYIFLIVEKGMDSEVYKTARALRIVRFTKILSLLRLLRLSRLIRYIHQWEEIFHMTYDLASAVVRIFNLIGMMLLLCHWDGCLQFLVPLLQDFPPDCWVSLNEMVNDSWGKQYSYALFKAMSHMLCIGYGAQAPVSMSDLWITMLSMIVGATCYAMFVGHATALIQSLDSSRRQYQEKYKQVEQYMSFHKLPADMRQKIHDYYEHRYQGKIFDEENILNELNDPLREEIVNFNCRKLVATMPLFANADPNFVTAMLSKLRFEVFQPGDYIIREGAVGKKMYFIQHGVAGVITKSSKEMKLTDGSYFGEICLLTKGRRTASVRADTYCRLYSLSVDNFNEVLEEYPMMRRAFETVAIDRLDRIGKKNSILLQKFQKDLNTGVFNNQENEILKQIVKHDREMVQAIAPINYPQMTTLNSTSSTTTPTSRMRTQSPPVYTATSLSHSNLHSPSPSTQTPQPSAILSPCSYTTAVCSPPVQSPLAARTFHYASPTASQLSLMQQQPQQQVQQSQPPQTQPQQPSPQPQTPGSSTPKNEVHKSTQALHNTNLTREVRPLSASQPSLPHEVSTLISRPHPTVGESLASIPQPVTAVPGTGLQAGGRSTVPQRVTLFRQMSSGAIPPNRGVPPAPPPPAAALPRESSSVLNTDPDAEKPRFASNL
For B1, the “shift of activation curve to more positive potentials by cAMP” value [1] is listed as 4 mV.

B2: mE324A: mHCN2 channel with E324A point mutation, expressed from cRNA or adenoviral construct AdmE324A (protein, UniProt O88703 1-863, looked up, variant E324A)
Potassium/sodium …: MDARGGGGRPGDSPGTTPAPGPPPPPPPPAPPQPQPPPAPPPNPTTPSHPESADEPGPRARLCSRDSACTPGAAKGGANGECGRGEPQCSPEGPARGPKVSFSCRGAASGPSAAEEAGSEEAGPAGEPRGSQASFLQRQFGALLQPGVNKFSLRMFGSQKAVEREQERVKSAGAWIIHPYSDFRFYWDFTMLLFMVGNLIIIPVGITFFKDETTAPWIVFNVVSDTFFLMDLVLNFRTGIVIEDNTEIILDPEKIKKKYLRTWFVVDFVSSIPVDYIFLIVEKGIDSEVYKTARALRIVRFTKILSLLRLLRLSRLIRYIHQWAEIFHMTYDLASAVMRICNLISMMLLLCHWDGCLQFLVPMLQDFPSDCWVSINNMVNHSWSELYSFALFKAMSHMLCIGYGRQAPESMTDIWLTMLSMIVGATCYAMFIGHATALIQSLDSSRRQYQEKYKQVEQYMSFHKLPADFRQKIHDYYEHRYQGKMFDEDSILGELNGPLREEIVNFNCRKLVASMPLFANADPNFVTAMLTKLKFEVFQPGDYIIREGTIGKKMYFIQHGVVSVLTKGNKEMKLSDGSYFGEICLLTRGRRTASVRADTYCRLYSLSVDNFNEVLEEYPMMRRAFETVAIDRLDRIGKKNSILLHKVQHDLSSGVFNNQENAIIQEIVKYDREMVQQAELGQRVGLFPPPPPPQVTSAIATLQQAVAMSFCPQVARPLVGPLALGSPRLVRRAPPGPLPPAASPGPPAASPPAAPSSPRAPRTSPYGVPGSPATRVGPALPARRLSRASRPLSASQPSLPHGVPAPSPAASARPASSSTPRLGPAPTARTAAPSPDRRDSASPGAASGLDPLDSARSRLSSNL
For B2, the “activation kinetics compared with mHCN2” value [2] was “faster”, the “activation threshold compared with mHCN2” value [2] was “less negative” and the “shift of V1/2 by cAMP” value [2, 4] was 5.6 mV. For the same molecule, the “percentage of myocytes expressing current” value ([2]; 6 matched cell cultures) was 36.6%, the “current density, times smaller than that of mHCN2” value ([2]; at −135 mV) was “about 2.5 times” and the V1/2 [2, 4] was −40.7 mV. It also gave a s [2, 4] of 8.7 mV, a V1/2 ([2]; absence of cAMP) of −46.3 mV and a s ([2]; absence of cAMP) of 9.1 mV. For the same molecule, the slope factor s ([2]; mean of individual Boltzmann fits) was 9.6±0.4 mV, the “V1/2 (voltage of half maximum activation)” value ([2]; mean of individual Boltzmann fits, adenoviral infection) was −46.9±1.2 mV and the current density ([2]; measured at −135 mV) was 21.0±3.5 pA/pF. For the same molecule, the “effect of Cs+ on inward current” value (Xenopus oocytes; 5 mM Cs+) was “blocked; also recorded: large inhibition”, the reversal potential (Xenopus oocytes; fully activated current/voltage relation) was ~−40 mV and the “beats triggered by the electronic pacemaker, of all beats” value ([3]; 14 days, electronic pacemaker set at VVI 45 bpm) was 36±7%. The “arrhythmias during epinephrine infusion” value ([3]; day 14) was “no arrhythmias were seen”, the “mean basal heart rate compared with saline group” value ([3]; days 1-7 and 8-14) was “significantly faster” and the “animals that achieved a 50% increase in rate at the lowest epinephrine dose” value ([3]; epinephrine 1 μg/kg/min, day 14) was 100%. For the same molecule, the “increase in heart rate” value ([3]; lowest dose of epinephrine) was > 50%, the “control rate prior to epinephrine” value ([3]; representative animal, day 14) was 52 bpm and the rate with epinephrine ([3]; representative animal, epinephrine 1 μg/kg/min) was 81 bpm.

— patent US20090053180A1, “Tandem cardiac pacemaker system” (priority 2005, published 2009)
